{"source": "patent US20090011987A1", "about": "“Use of Glp-2 for the Treatment of Ischemia-Reperfusion Injury” (Novo Nordisk A/S, priority 2005, published 2009)", "origin": "cited, not measured here", "conditions": "adult human plasma", "data": [{"substance": "GLP-2(1-33) [wild type human GLP-2(1-33)]", "values": [{"measurement": "half-life", "result": "lower than 2 hours"}]}]}
